Measurements published in the supplement of paper PMC12042874.
± gives the uncertainty stated by the source.

Test: amyloid nucleation score (Sup35N fusion, yeast selection) (log enrichment); library NNK2; higher = more nucleation; inactive = no reads after selection
Summary of the method: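 Sup35N fusions to peptides of 20 random codons were expressed in psi-negative yeast, induced 24 hours with 100 μM copper sulfate, and grown 7 days at 30°C on medium lacking adenine and uracil. Input and output plasmid inserts were sequenced by Illumina. The nucleation score is the DiMSum log enrichment of output over input reads, centred on the mode score of non-aggregating sequences. Sequences with under 100 input reads were excluded.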

Substance | amyloid nucleation score
RLNCLSTWIVYCGPGYVSSV | -0.571 ± 0.45
RLPAFSRFG | -0.452 ± 0.37
RLQDNRDVATGH | inactive
RLQSSRSGVKAL | 0.208 ± 0.8
RLRDDENIGIFMTF | -1.15 ± 1
RLSRCL | 4.23 ± 0.055
RLSRYFLRFWWAYDYDSN | 0.101 ± 0.54
RLSSYILAIYSNRAKYF | 0.412 ± 0.5
RLSVAFRRVRDRYVLLIFLP | 0.548 ± 0.55
RLSVTLL | -0.157 ± 0.24
RLSWLLLKFNDQVWRLIGAG | 4.04 ± 0.054
RLVTWGISQNRLAQLY | -0.001 ± 0.33
RLVWWVIWIPSKCMGADKNW | -0.029 ± 0.8
RLYVTSYIY | 3.26 ± 0.098
RMCVWHMLVIGVRGKTGATR | 3.01 ± 0.11
RMDTGNLYVFLMKCFNMAYA | 5.2 ± 0.091
RMFVLLNRPNGLSCKGMFRG | 0.446 ± 0.64
RMKMDNIPFEIYVFTVTLLD | inactive
RMKVDTLIWTPDWMEFVSII | -0.824 ± 1.1
RMLLKLTHFALSVKGMQSRY | 0.417 ± 0.38
RMNSYKLSKVYNT | -0.225 ± 1
RMNYTTEIGHSGFSGNIWTG | -0.45 ± 0.78

Substance | amyloid nucleation score
RMPGWY | inactive
RMRLSYWHCISLGLVLLRPI | 0.298 ± 0.39
RMSVWNNECTWTSSVSVHPK | 2.37 ± 0.1
RNLGIHKSLFNSAYARAWAV | -0.771 ± 0.49
RNLYGHISVIFCGDNFDGSC | 7.15 ± 0.077
RNNRLTLVRVSFDVQCEPMV | 0.468 ± 0.46
RNPVTSIVQVHDKMGRRSKS | inactive
RNQNLLWNVSGIAFNKMRRK | 4.02 ± 0.093
RNSPVSLDVVSI | 0.046 ± 0.49
RPCQGLDTSVRCVLMMRYYR | 4.36 ± 0.046
RPLASSWAQY | 1.65 ± 0.21
RPPSIYC | -0.477 ± 0.49
RPRILYLLLFLYNHFLTSYK | -1.08 ± 1
RPSFKKYFAGSSDTNGSGVC | -0.513 ± 0.64
RQALVRILFSSSRIGGM | -0.857 ± 0.44
RQANFAQDPTSIVPVYMYLR | 2.35 ± 0.074
RQARSCIVGDGSWRGCLIKV | 1.11 ± 0.26
RQEFNCIASCRF | 2.12 ± 0.091
RQLAFFLIYPHGASVTYWAP | -0.956 ± 1.1
RQLLTKCLCASTGGFIFSWD | 0.792 ± 0.8
RQMMWRYEE | 0.3 ± 0.32
RQSIEISYLYISFGHKYR | 5.98 ± 0.083

Substance | amyloid nucleation score
RRCEGCN | -0.299 ± 1
RRDHHMPPITPGCFRLYWRI | 0.237 ± 1
RRGIASILGHYRGTKMTGFD | 0.135 ± 0.56
RRGNWKMSFFRMLTVNP | -0.488 ± 0.55
RRIINFQGHREEYGEMHTVM | -0.449 ± 0.64
RRISSKECLYRWGALWYIEI | 0.086 ± 0.61
RRNMVSWVSDDEQFSDKPLA | 0.121 ± 0.4
RRRPRGLEGFAERGLGDWTY | 1.36 ± 0.44
RRSNLGNWFDV | 0.285 ± 1
RRSWCLGFSRDLMSELKGIS | 1.4 ± 0.41
RRTIGASTEKYRLNNFLHVC | -0.661 ± 1.1
RRWTHKEPIKASLVRRFLRV | inactive
RSCYVYRN | inactive
RSGSQENKVSECAQDTTFSV | 0.367 ± 0.54
RSKSCSVVVRL | 0.813 ± 0.43
RSLLRFQ | 0.874 ± 0.14
RSLSSPSRKLKLTNLWI | -0.226 ± 1.1
RSLTCLSVKGNLTHTINVCY | 6.08 ± 0.069
RSLYVVFWIAGFEWGEIRVA | 0.822 ± 0.26
RSSLQSPWGYPKPMWLRSCA | 1.06 ± 0.33
RSSQTPFWEIGSMLLSKMCA | 0.65 ± 0.42
RSSRVEYSCLDGRMRELRGS | -0.443 ± 0.48

Substance | amyloid nucleation score
RSSWPTLKQGCSKSRQIWRA | 0.182 ± 0.3
RSTLDQRRFGNRF | 0.063 ± 1.1
RSVKDTPCLKLVLMKRDTLK | 0.092 ± 0.54
RSYLIKSLVSSLSARWIMMS | -0.03 ± 0.49
RTCDDA | 0.294 ± 0.8
RTCHGHYFLMM | 0.683 ± 0.74
RTDSGTMMCRVWAMYPESTS | 1.22 ± 0.41
RTDVFWNRMQRDSLFKPNAT | 0.192 ± 0.44
RTEMHYARQRHELDVPVWL | 0.25 ± 0.49
RTFLDIIGQTLLYVLVTVLA | 0.548 ± 0.46
RTGRRSAFCTSVRRLNPDCL | 1.17 ± 0.41
RTGSALAHCFCDMQYVAATI | inactive
RTHCSMSYQSRVVVDWLLQK | 4.18 ± 0.087
RTIAVSQWLASHGTVLVWPD | inactive
RTLYGALMIVWVS | 0.004 ± 1.1
RTNVWASDI | -0.32 ± 0.39
RTRDPRIFLSVCTGYTRRYY | -1.28 ± 0.76
RTRLS | 0.559 ± 0.21
RTRTYL | inactive
RTSFRNVMTIMTSPHVVTFI | -0.149 ± 0.4
